This passage reports GM IC50 in ng/mL (GSD factor), live virus microneutralisation and IC50 (read off the curve) results from patent US20250313611A1.

Assay [1] addresses spike protein of authentic SARS-COV-2 Omicron BA.5 virus (SARS-CoV-2 Omicron BA.5). The assay is described as follows: cell-based or functional assay.
Assay [2] deals with spike protein of authentic SARS-COV-2 614G virus (SARS-CoV-2 614G) (UniProt P0DTC2). In words: cell-based or functional assay.
In assay [3] the target is spike protein of authentic SARS-COV-2 Omicron BA.1 virus (SARS-CoV-2 Omicron BA.1). In words: cell-based or functional assay.
For assay [4], the target named is spike protein of authentic SARS-COV-2 Omicron BA.2 virus (SARS-CoV-2 Omicron BA.2). In words: cell-based or functional assay.
The target of assay [5] is spike protein of authentic SARS-COV-2 Delta virus (SARS-CoV-2 Delta). The assay is described as follows: cell-based or functional assay.
Assay [6] has as its target SARS-COV-2 spike [change] trimer ([change]-foldon-His-Strep) (SARS-CoV-2 (Wuhan)) (UniProt P0DTC2).

Consider “Bebtelovimab Biosimilar (PX-TA1750) (antibody)”, for which the GM IC50 in ng/mL (GSD factor), live virus microneutralisation in assay [1] is 2.4 ng/mL; in assay [2], 3.8 ng/mL; in assay [3], 2.5 ng/mL; in assay [4], 1.7 ng/mL; in assay [5], 1.6 ng/mL.
Turning to “cilgavimab Biosimilar (PX-TA1033) (antibody)”, the GM IC50 in ng/mL (GSD factor), live virus microneutralisation stood at 30.9 ng/mL in assay [2], 156 ng/mL in assay [3], 21.2 ng/mL in assay [4] and 28.8 ng/mL in assay [5].
CB6 monoclonal antibody returned an IC50 (read off the curve) in assay [6] of 0.05 µg/mL.
For the substance “sotrovimab Biosimilar (PX-TA1637) (antibody)”, the GM IC50 in ng/mL (GSD factor), live virus microneutralisation was more than 10000 ng/mL in assay [1]; 205 ng/mL in assay [2]; 1100 ng/mL in assay [3]; 7150 ng/mL in assay [4]; 141 ng/mL in assay [5].
